The supplement of paper PMC9170038

Tested on: MS2 coat protein
Experiment: apparent KD of MS2 coat protein; higher = weaker reporter binding
Conditions: Eterna round: R107
Procedure, shortened: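 Titrations with SNAP-549-labelled MS2 coat protein ran in twofold steps from 0.7 or 1.5 nM to 3 µM, each step taking 0.8–1.5 h at the start and 10–20 min toward the end. The targets were designed RNA switches transcribed on-chip from Illumina sequencing clusters, held in 100 mM Tris-HCl pH 7.5, 80 mM KCl, 4 mM MgCl2, without or with constant ligand. Apparent KD was taken per design as the median of normalised cluster binding-curve fits.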

[1] = input ligand: theophylline 20 uM
[2] = input ligand: theophylline 2 mM
[3] = input ligand: tryptophan 2.4 mM

| Sequence | apparent KD of MS2 coat protein (input ligand: arginine 13.2 mM) | apparent KD of MS2 coat protein (input ligand: none) | apparent KD of MS2 coat protein [1] | apparent KD of MS2 coat protein [2] | apparent KD of MS2 coat protein [3] |
| --- | --- | --- | --- | --- | --- |
| GUGUUAUGCUCGGCCGCCACUCUGACAUGAGGAUCACCCAUGUUGUACAUGAGGAUCACCCAUGUGAGGACCGGGAGAAACACGA [Exclusion Tryptophan B GF9] | 191 nM | 193 nM | 191 nM | 209 nM | 274 nM |
| UAAAAUAAAAGGGUGAAGGUAUAAACAGAUACCAGCCAGAUAACUGGCCCUUGGCAGCUGAAUGACAUGAGGAUCACCCAUGUCU [TheoAS 21 #OpenEnded #Ms2Late] | 13.1 nM |  | 17.7 nM |  | 14.5 nM |
| UAACAUGAGGAUCACCCAUGUAUACUAAGUCGAGGACCGGUACGGCCGCCACUCGAACUUCAAGAAUAGGCGGUAAAUGUAAGUA [JR_ExcTryptoA_Sub020] | 11.8 nM |  | 16.5 nM | 14 nM |  |
| UACAUGAGGAUCACCCAUGUAUGAAUAGAUACCAGAUAAAAUAAGGUCCCUUGGCAGCUAGUGAAUCGAGGGUGGGUAUCAUGAU [#12 Exclusion-TheophyllineA] | 9.47 nM |  | 12.7 nM |  | 9.93 nM |
| UACAUGAGGAUCACCCAUGUGUAACCAGAAGGAGCGUGCGAAAGCACAGGUAGGUCGCUGGUGGGUUUAGGUUUAAUAGGUGUAU [SSAA NP+V+V2 #4 +-Same Structure] | 32.8 nM | 32.3 nM | 54.1 nM | 40.6 nM | 34.6 nM |
| UACUUGCUGACGGCCGCCACUAGAACAUGAGGAUCACCCAUGUAUCUAGUGGCAAUCCUCAUGACUAGGACCGGGUCAGCAAGAU [(Trp1)-(Ms2)-(T)'-(M)'-(Trp2)_Design1] | 8.26 nM |  | 10.4 nM | 9.58 nM |  |
| UAGAAACGUACGGCCGCCACUCGGAAUUGGCUCAGACCAUACGUACAUGAGGAUCACCCAUGUUAGAGGACCGGGUAUAAUCUAA [theeternabot_sameState_MS2_Trp_B_46] | 18.5 nM |  | 30.8 nM | 31 nM |  |
| UAGAGCCAGUCGGCCGCCACUCUCCAUAUGUGAGCCUUUAAGUUCUACAUGAGGAUCACCCAUGUGAGGACCGGGACCGAAUCUA [theeternabot_exclusion_MS2_Trp_B_18] | 39.7 nM |  | 80.3 nM | 93.8 nM |  |
| UAUAACAUGAGGAUCACCCAUGUAAGUGAUACCAGAUAAAUAAUAGUCCCUUGGCAGCAUAUUGGGAAAGUGUAUAAUAUAUAUU [Same State - Theophylline A (Freestyle 2)] | 50.8 nM |  | 66.1 nM |  | 48.1 nM |
| UAUAUAAUAACAGAUACCAGCGUGUUAUAAAACAUGAGGAUCACCCAUGUAGUGAUCAAGCGCCCUUGGCAGCUGGUAUUAUAUA [7.A] | 123 nM |  | 140 nM |  | 47.6 nM |
| UAUAUAGAAGGAAGUCAUAUAGUUGCAGAAGGAGCGUAGGAAACUACAGGUAGGUCGCUGAGGUACAUGAGGAUCACCCAUGUAG [SSArg A #16 Slice of Pi] | 31.1 nM | 23.6 nM | 41 nM | 29.7 nM | 27.2 nM |
| UAUAUAUAUAUUGAUACCAGCAGAGAAAACGUUUAUCCUAACAUGAGGAUCACCCAUGUAUGCCCUUGGCAGCGGUAUAUAUAUA [8.D] | 19.7 nM |  | 29.2 nM |  | 22.6 nM |
| UAUCCACAUGAGGAUCACCCAUGUAGGGAAGGAGCGGUGGUUUCACCAGGUAGGUCGCCUUACUGAGGAGAACCGGUGGAAUCGU [Exclusion - Arginine A (Freestyle 29)] | 23.8 nM | 42.1 nM | 61.7 nM | 105 nM | 42.6 nM |
| UAUCCACAUGAGGAUCACCCAUGUUAGGAAGGAGCGGUGAAUGCACCAGGUAGGUCGCCUAGCUGAGGACUGUCGAUGGAUUCGU [Exclusion - Arginine A (Freestyle 18)] | 23.3 nM | 23.9 nM | 30.8 nM | 39.6 nM | 26 nM |
| UAUCGUCAGACGGCCGCCACUAGAACAUGAGGAUCACCCAUGUACGGCCGCCCGGUAUGGGUGUCUAGGACCGGGUCUGACGAAU [(Trp1)-(Ms2)-(T)'-(M)'-(Trp2)_Design21] | 22.9 nM |  | 37.8 nM | 39.8 nM |  |
| UAUCGUCAGACGGCCGCCACUAGUACAUGAGGAUCACCCAUGUAGGUCCUAGAUUCCUCAUGAUCUAGGACCGGGUCUGACGAAU [(Trp1)-(Ms2)-(T)'-(M)'-(Trp2)_Design16] | 21.4 nM |  | 61.5 nM | 52.9 nM |  |
| UAUCUAACGAAGGAUACCAGUACAUGAGAGUACAUGAGGAUCACCCAUGUUAGAUACGGGUACCCUUGGCAGCCUCACCUACACC [theeternabot_sameState_MS2_Theo_B_11] | 40.3 nM |  | 71.6 nM |  | 58 nM |

| Sequence | apparent KD of MS2 coat protein (input ligand: arginine 13.2 mM) | apparent KD of MS2 coat protein (input ligand: none) | apparent KD of MS2 coat protein [1] | apparent KD of MS2 coat protein [2] | apparent KD of MS2 coat protein [3] |
| --- | --- | --- | --- | --- | --- |
| UAUGCACAUGAGGAUCACCCAUGUAUGGAAGGAGCGGUGAAUGAACCAGGUAGGUCGCCAUGGUGAGGAUCAUCUAUGUAAUCGU [Exclusion - Arginine A (Freestyle 7)] | 38.9 nM | 86 nM | 117 nM | 128 nM | 86.8 nM |
| UCACUCCUGAUGGAUACCAGUUACUAACGCAACAUGAGGAUCACCCAUGUGAACACUCAGAACCCUUGGCAGCCAGGAGAACGAA [theeternabot_sameState_MS2_Theo_B_30] | 42.8 nM |  | 60.2 nM |  | 53.8 nM |
| UCAUAUUAGAUAGAUGUAAGGUAUCAUGAUACCAGUAGAUAAUUAUACCCUUGGCAGCAUAACAUGAGGAUCACCCAUGUACAUG [Aa] | 20.3 nM |  | 22 nM |  | 17.9 nM |
| UCAUAUUAGUGAGAUGUAAGGUAUCAUGAUACCAGUAGAUAAUUAUACCCUUGGCAGCAUAACAUGAGGAUCACCCAUGUACAUG [Ab] | 23.1 nM |  | 21.3 nM |  | 19.8 nM |
| UCCAUCGGCGGAAGCCGAUGGUUUACAGAAGGAGCGUGGAUUAACACAGGUAGGUCGCUGGACAUGAGGAUCACCCAUGUGAUAG [SSAA #6] | 40.1 nM | 60.4 nM | 117 nM | 60.4 nM | 55 nM |
| UCGAAUGCGGCGGCCGCCACUCGCGGAUAACGAUAGCUUAACAUGAGGAUCACCCAUGUGUCAUGGAGGACCGGGCCCAUACCGU [azamullin] | 19.7 nM |  | 36.1 nM | 26.6 nM |  |
| UCGGGAACAUGAGGAUCACCCAUGUCAGAAGGAGCGCUGAGAGAAGCAGGUAGGUCGCUGACGCAGGAGCUCUCUUCCUGUACGC [#22 Exclusion - Arginine A] | 96.2 nM | 33.8 nM | 46.4 nM | 22.6 nM | 15.9 nM |
| UCGGGUUUGCGAAGGAGCGGGUAUGUUUUCUAGUGGAUCCUAACAUGAGGAUCACCCAUGUCCCAGGUAGGUCGCGCGGGUUUGG [12.W] | 183 nM | 102 nM | 291 nM | 168 nM | 100 nM |
| UCGUCAGGCGCGGCCGCCACUGCGGUGAUGUGACAUGAGGAUCACCCAUGUUGUCAUGUGGCACAUAGGACCGGGUGCCUGGCGA [Exclusion - Tryptophan B Attempt #5 (HarryS)] | 8.16 nM | 56 nM | 44.5 nM | 114 nM | 17.6 nM |
| UCGUGGUCCGCAAGGACCGGGAGUUGCGAUACCAGCACGGUAACGUGCCCUUGGCAGCGCACAUGAGGAUCACCCAUGUGGUGUU [#1 Exclusion - Theophylline A Attempt #14 (HarryS)] | 40.9 nM |  | 305 nM |  | 174 nM |
| UCGUGUAUUUCGGAUACCAGUGAAAUCGAUACAUGAGGAUCACCCAUGUGAGAGGAUGUACACCCUUGGCAGCUGUAUAUAUCUG [fgfmullin] | 18.7 nM | 29.1 nM | 38.7 nM | 24.8 nM | 21.9 nM |
| UCGUGUGUUUCGGAUACCAGUGAAAUCGAUACAUGAGGAUCACCCAUGUGAGAGGAUGUACACCCUUGGCAGCUGUCUGUAUCGG [asczmullin] | 40.6 nM | 54.2 nM | 58.6 nM | 43.8 nM | 43 nM |
| UCGUGUGUUUCGGAUACCAGUGUGGUCGAUACAUGAGGAUCACCCAUGUUAGAGGAGGUACACCCUUGGCAGCCGGCUGUUGCGG [kdtmullin] | 59.9 nM |  | 88.5 nM |  | 79.5 nM |
| UCGUUUGAGUCGGCCGCCACUGGUCUCAUGGUCAACAUGAGGAUCACCCAUGUAUCUUAGUUAAACAGGACCGGGACUCGAUCGA [#17 Exclusion Tryptophan B] | 62.5 nM | 50.5 nM | 67.7 nM | 34.3 nM | 20.6 nM |
| UCUUUCUAUGUAGAUACCAGCAUGUUAUCUUUCUUUUGACAUGAGGAUCACCCAUGUAAAUGCCCUUGGCAGCUACAUUUUCUUU [SSTHB #3] | 21 nM |  | 20.9 nM |  | 19.7 nM |
| UGACAUUGCUCAGAUACCAGACAGGAGGAUCACUCCUGUGCCAACAAGUACAAAAUAAAUGUCCCUUGGCAGCUGAGCAAUGUCU [TheoBX 25 #MS2Left #AlternativeMS2 #Theo22] | 32 nM | 71.1 nM | 223 nM | 459 nM | 49 nM |
